US20260167699A1 (Chugai, published 2026)
Read-outs that look alike come from different tables or passages of the source.

T1: FcγRIIa(H) (human, UniProt P12318 34-217)
T1 construct: extracellular domain; also called 2aH
T1 sequence: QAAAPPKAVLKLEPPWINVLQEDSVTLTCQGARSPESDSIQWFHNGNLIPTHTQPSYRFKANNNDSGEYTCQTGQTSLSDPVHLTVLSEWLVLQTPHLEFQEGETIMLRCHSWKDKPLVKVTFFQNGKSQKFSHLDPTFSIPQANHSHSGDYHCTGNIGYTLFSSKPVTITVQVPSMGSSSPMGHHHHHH

T2: FcγRIIa(R) (human, UniProt P12318 34-217)
T2 construct: extracellular domain; also called 2aR
T2 sequence: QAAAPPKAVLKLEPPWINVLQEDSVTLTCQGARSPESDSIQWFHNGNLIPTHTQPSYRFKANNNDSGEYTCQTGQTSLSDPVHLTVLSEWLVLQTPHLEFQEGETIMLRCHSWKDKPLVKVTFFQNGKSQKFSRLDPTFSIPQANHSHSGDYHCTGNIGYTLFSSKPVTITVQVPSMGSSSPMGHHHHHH

T3: FcγRIIb (human, UniProt P31994 43-217)
T3 construct: extracellular domain; also called 2b
T3 sequence: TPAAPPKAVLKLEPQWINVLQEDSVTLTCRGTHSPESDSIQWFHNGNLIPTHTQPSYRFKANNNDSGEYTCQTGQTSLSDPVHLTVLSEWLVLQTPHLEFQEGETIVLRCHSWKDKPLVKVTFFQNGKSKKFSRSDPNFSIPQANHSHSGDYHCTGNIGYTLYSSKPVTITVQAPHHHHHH

T4: FcγRIIb extracellular domain with C-terminal His tag (human, UniProt P31994 43-217)
T4 construct: extracellular domain
T4 sequence: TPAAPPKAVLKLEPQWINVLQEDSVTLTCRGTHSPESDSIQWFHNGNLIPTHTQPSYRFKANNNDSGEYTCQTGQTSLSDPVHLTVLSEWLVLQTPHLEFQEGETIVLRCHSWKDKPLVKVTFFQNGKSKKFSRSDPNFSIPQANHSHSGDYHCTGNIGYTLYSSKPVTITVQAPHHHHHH

T5: FcγRIIa(R) extracellular domain with C-terminal His tag (human, UniProt P12318 34-217)
T5 construct: extracellular domain; polymorphic form R131; also called FcγRIIa R type
T5 sequence: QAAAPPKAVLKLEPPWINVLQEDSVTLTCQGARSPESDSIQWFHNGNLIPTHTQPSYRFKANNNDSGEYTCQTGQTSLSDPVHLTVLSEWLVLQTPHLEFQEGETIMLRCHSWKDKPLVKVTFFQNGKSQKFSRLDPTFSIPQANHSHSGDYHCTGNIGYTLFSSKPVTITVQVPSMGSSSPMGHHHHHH

T6: FcγRIIa(H) extracellular domain with C-terminal His tag (human, UniProt P12318 34-217)
T6 construct: extracellular domain; polymorphic form H131; also called FcγRIIa H type
T6 sequence: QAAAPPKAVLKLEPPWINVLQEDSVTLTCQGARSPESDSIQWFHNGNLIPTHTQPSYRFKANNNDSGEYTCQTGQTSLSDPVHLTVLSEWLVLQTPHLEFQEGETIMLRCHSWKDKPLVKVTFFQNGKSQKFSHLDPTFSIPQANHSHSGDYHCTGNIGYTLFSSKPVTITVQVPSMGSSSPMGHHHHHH


Assays:
FcγRIIIa = molecular target: T7, FcγRIIIa (human, UniProt P08637 17-208); assay: SPR, relative to GpH7-A5/GpH7-B3/GpL16-k0 =100
T7 construct: extracellular domain; also called 3a

FcγRIIa(H) = molecular target: T1, FcγRIIa(H); assay: SPR, relative to GpH7-A5/GpH7-B3/GpL16-k0 =100
FcγRIa = molecular target: T8, FcγRIa (human, UniProt P12314 16-292); assay: SPR, relative to GpH7-A5/GpH7-B3/GpL16-k0 =100
T8 construct: extracellular domain; also called 1a

FcγRIIa(R) = molecular target: T2, FcγRIIa(R); assay: SPR, relative to GpH7-A5/GpH7-B3/GpL16-k0 =100
FcγRIIb = molecular target: T3, FcγRIIb; assay: SPR, relative to GpH7-A5/GpH7-B3/GpL16-k0 =100
[1] = molecular target: T4, FcγRIIb extracellular domain with …; assay: SPR (Biacore), captured antibody, FcγR analyte, 1:1 Langmuir fit
Description: (§1) The antibody of interest was analyzed for its interaction with FcγR using a BiaCore™ T100, BiaCore™ A100, or BiaCore™ 4000 surface plasmon resonance system (GE Healthcare Japan Corp.). The running buffer used was HBS-EP+ (GE Healthcare Japan Corp.). The assay temperature was set to 25° C. The sensor chips used were: a chip prepared by immobilizing antigenic peptides onto Series S Sensor Chip CM5 (GE Healthcare Japan Corp.) by the amine coupling method; a chip prepared by immobilizing antigenic peptides biotinylated in advance onto Series S Sensor Chip SA (certified) (GE Healthcare Japan Corp.) through their interaction; a chip prepared by immobilizing protein L (ACTIGEN, BioVision, Inc.) onto Series S Sensor Chip CM5 (GE Healthcare Japan Corp.); and a chip prepared by immobilizing protein A/G (Thermo Fisher Scientific K.K.) onto Series S Sensor Chip CM5 (GE Healthcare Japan Corp.). The antibody of interest was captured onto any of these chips and allowed to interact with FcγR diluted with a running buffer. The antibody captured on the chip was washed off through the reaction of 10 mM glycine-HCl (pH 1.5) to regenerate the chip, which was repetitively used.

[2] = molecular target: T5, FcγRIIa(R) extracellular domain with …; assay: as above
Description: as §1

[3] = molecular target: T9, FcγRIIIa(F) extracellular domain with C-terminal His tag (human, UniProt P08637 17-208); assay: as above
T9 construct: extracellular domain; polymorphic form F158; also called FcγRIIIa F type
Description: as §1

[4] = molecular target: T10, FcγRIIIa(V) extracellular domain with C-terminal His tag (human, UniProt P08637 17-208); assay: as above
T10 construct: extracellular domain; polymorphic form V158; also called FcγRIIIa V type
Description: as §1

[5] = molecular target: T6, FcγRIIa(H) extracellular domain with …; assay: as above
Description: as §1

[6] = molecular target: T11, FcγRIa extracellular domain with C-terminal His tag (human, UniProt P12314 16-292); assay: as above
T11 construct: extracellular domain
Description: as §1

[7] = molecular target: T4, FcγRIIb extracellular domain with …; assay: as above; remark: listed apart in the source
Description: as §1

[8] = molecular target: T5, FcγRIIa(R) extracellular domain with …; assay: as above; remark: listed apart in the source
Description: as §1

[9] = molecular target: T9, FcγRIIIa(F) extracellular domain with …; assay: as above; remark: listed apart in the source
Description: as §1

[10] = molecular target: T10, FcγRIIIa(V) extracellular domain with …; assay: as above; remark: listed apart in the source
Description: as §1

[11] = molecular target: T6, FcγRIIa(H) extracellular domain with …; assay: as above; remark: listed apart in the source
Description: as §1

[12] = molecular target: T11, FcγRIa extracellular domain with …; assay: as above; remark: listed apart in the source
Description: as §1

T9 sequence (P08637 other isoform, or with tags, fused parts or gaps): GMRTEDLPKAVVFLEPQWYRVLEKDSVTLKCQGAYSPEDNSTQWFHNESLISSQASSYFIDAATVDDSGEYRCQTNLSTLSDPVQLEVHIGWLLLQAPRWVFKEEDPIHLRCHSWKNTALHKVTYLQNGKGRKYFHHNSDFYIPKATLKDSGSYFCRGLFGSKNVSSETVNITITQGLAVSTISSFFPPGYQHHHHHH
T10 sequence (P08637 other isoform, or with tags, fused parts or gaps): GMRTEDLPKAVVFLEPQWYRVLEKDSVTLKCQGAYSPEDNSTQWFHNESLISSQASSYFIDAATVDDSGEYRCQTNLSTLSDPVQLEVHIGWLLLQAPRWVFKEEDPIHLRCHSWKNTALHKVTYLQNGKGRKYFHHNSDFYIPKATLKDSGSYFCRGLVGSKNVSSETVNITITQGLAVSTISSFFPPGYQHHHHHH
T11 sequence (P12314 other isoform, or with tags, fused parts or gaps): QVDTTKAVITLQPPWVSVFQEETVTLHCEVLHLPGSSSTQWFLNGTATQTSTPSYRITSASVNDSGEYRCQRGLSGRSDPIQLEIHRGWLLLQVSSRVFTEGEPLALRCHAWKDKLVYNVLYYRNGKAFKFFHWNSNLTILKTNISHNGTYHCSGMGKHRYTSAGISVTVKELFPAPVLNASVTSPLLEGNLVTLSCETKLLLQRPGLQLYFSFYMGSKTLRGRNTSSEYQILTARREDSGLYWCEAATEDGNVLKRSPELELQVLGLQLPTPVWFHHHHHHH
T8 sequence (P12314 other isoform, or with tags, fused parts or gaps): as above

| He/Con 3a (FcγRIIIa) [%] | He/Con 2aH (FcγRIIa(H)) [%] | He/Con 1a (FcγRIa) [%] | He/Con 2aR (FcγRIIa(R)) [%] | He/Con 2b (FcγRIIb) [%] | Kd [1] [nM] | Kd [2] [nM] | Kd [3] [nM] | Kd [4] [nM] | Kd [5] [nM] | Kd [6] [nM] | Kd [7] [nM] | Kd [8] [nM] | Kd [9] [nM] | Kd [10] [nM] | Kd [11] [nM] | Kd [12] [nM] | Binder |
| --- | --- | --- | --- | --- | --- | --- | --- | --- | --- | --- | --- | --- | --- | --- | --- | --- | --- |
| 72.3 | 57.8 | 97.8 | 94.6 | 106 |  |  |  |  |  |  |  |  |  |  |  |  | GpH7-A5/GpH7-B3 variant S324_05P/GpL16-k0 (antibody, human IgG1, kappa, He Ab: heterodimerized IgG1, one H chain mutated) heavy 1: not shown heavy 2: not shown light: DIVMTQSPLSLPVTPGEPASISCQASESLVHSNRNTYLHWYLQKPGQSPQLLIYKVSNRFSGVPDRFSGSGSGTDFTLKISRVEAEDVGVYYCSQNTHVPPTFGQGTKVEIERTVAAPSVFIFPPSDEQLKSGTASVVCLLNNFYPREAKVQWKVDNALQSGNSQESVTEQDSKDSTYSLSSTLTLSKADYEKHKVYACEVTHQGLSSPVTKSFNRGEC |
| 111 | 114 | 108 | 106 | 114 |  |  |  |  |  |  |  |  |  |  |  |  | GpH7-A5/GpH7-B3 variant S324_20W/GpL16-k0 (antibody, human IgG1, kappa, He Ab: heterodimerized IgG1, one H chain mutated) heavy 1: not shown heavy 2: not shown light: DIVMTQSPLSLPVTPGEPASISCQASESLVHSNRNTYLHWYLQKPGQSPQLLIYKVSNRFSGVPDRFSGSGSGTDFTLKISRVEAEDVGVYYCSQNTHVPPTFGQGTKVEIERTVAAPSVFIFPPSDEQLKSGTASVVCLLNNFYPREAKVQWKVDNALQSGNSQESVTEQDSKDSTYSLSSTLTLSKADYEKHKVYACEVTHQGLSSPVTKSFNRGEC |
|  |  |  |  |  | 4100 | 1000 | 2600 | 390 | 930 | 0.25 | 4100 | 1000 | 2600 | 390 | 930 | 0.25 | H240-Kn033/H240-Hl033/L73-k0 (antibody, human IgG1, kappa, anti-epiregulin IgG1, knobs-into-holes control; also called H240-Kn033/H240-HI033/L73-k0) heavy 1: not shown heavy 2: not shown light: DIQMTQSPSSLSASVGDRVTITCRASQDIHKYIAWYQQKPGQAPRLLIQYTSTLQPGVPSRFSGSGSGTDYTFTISSLQPEDIATYYCLQYEQLRTFGGGTKVEIKRTVAAPSVFIFPPSDEQLKSGTASVVCLLNNFYPREAKVQWKVDNALQSGNSQESVTEQDSKDSTYSLSSTLTLSKADYEKHKVYACEVTHQGLSSPVTKSFNRGEC |
|  |  |  |  |  | 620 | 340 | 9.1 | 3.1 | 690 | 0.073 | 620 | 340 | 9.1 | 3.1 | 690 | 0.073 | H240-Kn032/H240-Hl032/L73-k0 (antibody, human IgG1, kappa, anti-epiregulin IgG1 called homodimerized: S239D/A330L/I332E in both H chains, knobs-into-holes; also called H240-Kn032/H240-HI032/L73-k0) heavy 1: QDQLVQSGAEVKKPGASVKVSCKASGFNIKDTYIQWVRQAPGQGLEWMGRIDPLRKQTKYREKFEGRVTITADTSTNTAYMELSSLRSEDTAVYYCVRSGREFDYWGQGTLVTVSSASTKGPSVFPLAPSSKSTSGGTAALGCLVKDYFPEPVTVSWNSGALTSGVHTFPAVLQSSGLYSLSSVVTVPSSSLGTQTYICNVNHKPSNTKVDKKVEPKSCDKTHTCPPCPAPELLGGPDVFLFPPKPKDTLMISRTPEVTCVVVDVSHEDPEVKFNWYVDGVEVHNAKTKPREEQYNSTYRVVSVLTVLHQDWLNGKEYKCKVSNKALPLPEEKTISKAKGQPREPQVCTLPPSRDELTKNQVSLWCLVKGFYPSDIAVEWESNGQPENNYKTTPPVLDSDGSFFLYSKLTVDKSRWQQGNVFSCSVMHEALHNHYTQKSLSLSP heavy 2: QDQLVQSGAEVKKPGASVKVSCKASGFNIKDTYIQWVRQAPGQGLEWMGRIDPLRKQTKYREKFEGRVTITADTSTNTAYMELSSLRSEDTAVYYCVRSGREFDYWGQGTLVTVSSASTKGPSVFPLAPSSKSTSGGTAALGCLVKDYFPEPVTVSWNSGALTSGVHTFPAVLQSSGLYSLSSVVTVPSSSLGTQTYICNVNHKPSNTKVDKKVEPKSCDKTHTCPPCPAPELLGGPDVFLFPPKPKDTLMISRTPEVTCVVVDVSHEDPEVKFNWYVDGVEVHNAKTKPREEQYNSTYRVVSVLTVLHQDWLNGKEYKCKVSNKALPLPEEKTISKAKGQPREPQVYTLPPSRCELTKNQVSLSCAVKGFYPSDIAVEWESNGQPENNYKTTPPVLDSDGSFFLVSKLTVDKSRWQQGNVFSCSVMHEALHNHYTQKSLSLSP light: DIQMTQSPSSLSASVGDRVTITCRASQDIHKYIAWYQQKPGQAPRLLIQYTSTLQPGVPSRFSGSGSGTDYTFTISSLQPEDIATYYCLQYEQLRTFGGGTKVEIKRTVAAPSVFIFPPSDEQLKSGTASVVCLLNNFYPREAKVQWKVDNALQSGNSQESVTEQDSKDSTYSLSSTLTLSKADYEKHKVYACEVTHQGLSSPVTKSFNRGEC |
|  |  |  |  |  | 4200 | 380 | 1.2 | 0.37 | 190 | 0.24 |  |  |  |  |  |  | H240-Kn125/H240-Hl076/L73-k0 (antibody, human IgG1, kappa, heterodimerized anti-epiregulin IgG1) heavy 1: QDQLVQSGAEVKKPGASVKVSCKASGFNIKDTYIQWVRQAPGQGLEWMGRIDPLRKQTKYREKFEGRVTITADTSTNTAYMELSSLRSEDTAVYYCVRSGREFDYWGQGTLVTVSSASTKGPSVFPLAPSSKSTSGGTAALGCLVKDYFPEPVTVSWNSGALTSGVHTFPAVLQSSGLYSLSSVVTVPSSSLGTQTYICNVNHKPSNTKVDKKVEPKSCDKTHTCPPCPAPEYQWGPMVFLFPPKPKDTLMISRTPEVTCVVVDVSDEEPEVKFNWYVDGVEVHNAKTKPREEQYNATYRVVSVLTVLHQDWLNGKEYKCKVSNKALPAPIEKTISKAKGQPREPQVCTLPPSRDELTKNQVSLWCLVKGFYPSDIAVEWESNGQPENNYKTTPPVLDSDGSFFLYSKLTVDKSRWQQGNVFSCSVMHEALHNHYTQKSLSLSP heavy 2: QDQLVQSGAEVKKPGASVKVSCKASGFNIKDTYIQWVRQAPGQGLEWMGRIDPLRKQTKYREKFEGRVTITADTSTNTAYMELSSLRSEDTAVYYCVRSGREFDYWGQGTLVTVSSASTKGPSVFPLAPSSKSTSGGTAALGCLVKDYFPEPVTVSWNSGALTSGVHTFPAVLQSSGLYSLSSVVTVPSSSLGTQTYICNVNHKPSNTKVDKKVEPKSCDKTHTCPPCPAPELLGGPSVFLFPPKPKDTLMISRTPEVTCVVVDVSHEEPEVKFNWYVDGVEVHNAKTKPREEQYNSTYRVVSVLTVLHQDWLNGKEYKCKVSNDALPMPIEETISKAKGQPREPQVYTLPPSRCELTKNQVSLSCAVKGFYPSDIAVEWESNGQPENNYKTTPPVLDSDGSFFLVSKLTVDKSRWQQGNVFSCSVMHEALHNHYTQKSLSLSP light: DIQMTQSPSSLSASVGDRVTITCRASQDIHKYIAWYQQKPGQAPRLLIQYTSTLQPGVPSRFSGSGSGTDYTFTISSLQPEDIATYYCLQYEQLRTFGGGTKVEIKRTVAAPSVFIFPPSDEQLKSGTASVVCLLNNFYPREAKVQWKVDNALQSGNSQESVTEQDSKDSTYSLSSTLTLSKADYEKHKVYACEVTHQGLSSPVTKSFNRGEC |
